In article PMC7181641, “Aspartate aminotransferase Rv3722c governs aspartate-dependent nitrogen metabolism in Mycobacterium tuberculosis” (Nature Communications, 2020):

Target: the molecule itself
Experiment: crystal structure; Rv3722c (~40 mg/mL) co-crystallised with 5 mM L-glutamic acid or 10 mM L-kynurenine, sitting drop vapor diffusion at 17 °C

B1: Rv3722c (aspartate aminotransferase of Mycobacterium tuberculosis) (enzyme)
chain: SFDSLSPQELAALHARHQQDYAALQGMKLALDLTRGKPSAEQLDLSNQLLSLPGDDYRDPEGTDTRNYGGQHGLPGLRAIFAELLGIAVPNLIAGNNSSLELMHDIVAFSMLYGGVDSPRPWIQEQDGIKFLCPVPGYDRHFAITETMGIEMIPIPMLQDGPDVDLIEELVAVDPAIKGMWTVPVFGNPSGVTYSWETVRRLVQMRTAAPDFRLFWDNAYAVHTLTLDFPRQVDVLGLAAKAGNPNRPYVFASTSKITFAGGGVSFFGGSLGNIAWYLQYAGKKSIGPDKVNQLRHLRFFGDADGVRLHMLRHQQILAPKFALVAEVLDQRLSESKIASWTEPKGGYFISLDVLPGTARRTVALAKDVGIAVTEAGASFPYRKDPDDKNIRIAPSFPSVPDLRNAVDGLATCALLAATETLLNQGLASSAPNVR
notes: also called AspAT
B1: binds.
